Measured values taken from publication PMC2063705 (The Journal of Cell Biology, 2006).

B1: wild-type p150^Glued NH2-terminal residues 1–333 (domain or fragment, human, UniProt Q14203-1 1-333, looked up)
chain: MAQSKRHVYSRTPSGSRMSAEASARPLRVGSRVEVIGKGHRGTVAYVGATLFATGKWVGVILDEAKGKNDGTVQGRKYFTCDEGHGIFVRQSQIQVFEDGADTTSPETPDSSASKVLKREGTDTTAKTSKLRGLKPKKAPTARKTTTRRPKPTRPASTGVAGASSSLGPSGSASAGELSSSEPSTPAQTPLAAPIIPTPVLTSPGAVPPLPSPSKEEEGLRAQVRDLEEKLETLRLKRAEDKAKLKELEKHKIQLEQVQEWKSKMQEQQADLQRRLKEARKEAKEALEAKERYMEEMADTADAIEMATLDKEMAEERAESLQQEVEALKERVD
modifications: [35S]methionine label (microtubule binding assay)
B2: G59S p150^Glued NH2-terminal residues 1–333 (domain or fragment, human, UniProt Q14203-1 1-333, looked up)
chain: MAQSKRHVYSRTPSGSRMSAEASARPLRVGSRVEVIGKGHRGTVAYVGATLFATGKWVSVILDEAKGKNDGTVQGRKYFTCDEGHGIFVRQSQIQVFEDGADTTSPETPDSSASKVLKREGTDTTAKTSKLRGLKPKKAPTARKTTTRRPKPTRPASTGVAGASSSLGPSGSASAGELSSSEPSTPAQTPLAAPIIPTPVLTSPGAVPPLPSPSKEEEGLRAQVRDLEEKLETLRLKRAEDKAKLKELEKHKIQLEQVQEWKSKMQEQQADLQRRLKEARKEAKEALEAKERYMEEMADTADAIEMATLDKEMAEERAESLQQEVEALKERVD
modifications: [35S]methionine label (microtubule binding assay)

Biological target: microtubules polymerized from purified tubulin, stabilized with paclitaxel (UniProt Q6B856 1-445)
Test: co-sedimentation

| Kd [nM] | Binder |
| --- | --- |
| 1100 ± 200 | B1 |
| 2600 ± 500 | B2 |
